This test relates to IPSC-derived endoderm cells. The test is described as follows: Endoderm differentiation of IPSCs with R-spo1 added, flow cytometry for EpCAM. The following applies: 5 ng/ml R-spo1 added to endoderm medium. The class given is cell-based, human. Here is the method: To start with, IPSCs were differentiated into definitive endoderms in a medium containing 100 ng/mL Activin A, 50 ng/mL Wnt3a, and 5 ng/mL R-spo1factors for 5 days (FIG. 1A). During the definitive endoderm development stage, the parenchymal cells of the liver derive from a specific germ layer. […] In particular, it is evident that following independent differentiations, the percentage of CXCR4+/EpCAM+ endodermal cells derived from three independent IPSC lines (WT1, WT2 and WT3) is not too different from one another, and that the endodermal induction step of the protocol can be repeated (FIG. 1B). At this point of the assay, the differentiation medium was modified to obtain more EpCAM+ endoderm cells. Wnt signalling pathway agonist and 5 ng/ml R-spo1, which is known to play a significant role in stem cell growth, were added to the endoderm medium. […] As a result, this protocol enables IPSCs to differentiate into more EpCAM+endoderm cells in two-dimensional mediums.
For orientation: In flow cytometry, cells or beads pass a laser one at a time.

Entries after “also recorded” stand apart in the source; their conditions may differ.

B1: R-spo1: Wnt signalling pathway agonist known to play a significant role in stem cell growth, added to the endoderm medium (protein, UniProt Q2MKA7 21-263, looked up)
R-spondin-1: SRGIKGKRQRRISAEGSQACAKGCELCSEVNGCLKCSPKLFILLERNDIRQVGVCLPSCPPGYFDARNPDMNKCIKCKIEHCEACFSHNFCTKCKEGLYLHKGRCYPACPEGSSAANGTMECSSPAQCEMSEWSPWGPCSKKQQLCGFRRGSEERTRRVLHAPVGDHAACSDTKETRRCTVRRVPCPEGQKRRKGGQGRRENANRNLARKESKEAGAGSRRRKGQQQQQQQGTVGPLTSAGPA
In the case of B1, the “morphology of the cells” value (DIC images) is on record as “not affected negatively”. For the same molecule, where the note is “flow cytometry, three healthy IPSCs”, the “EpCAM ratio / number of EpCAM (+) cells” value is “causes an increase in the number of EpCAM (+) cells; also recorded: increases the EpCAM ratio considerably”.

The record behind these values is patent publication US20230392122A1, “LONG-TERM AND FUNCTIONAL CULTURE OF HEPATIC ORGANOIDS (eHEPO) DERIVED FROM EPCAM+ ENDODERMAL PROGENITOR CELLS DIFFERENTIATED FROM INDUCED PLURIPOTENT STEM CELLS” (DOKUZ EYLUL UNIVERSITESI REKTORLUGU, priority 2020, published 2023).
